The source of these data is patent US20190352387A1 (Chugai, published 2019).

In assay [1] the target is T1, Recombinant human sclerostin (human, UniProt Q9BQB4 24-213).
T1 construct: Whole entry as named; Secreted recombinant protein purified from FreeStyle293-F conditioned medium; also called human-SOST; Human SOST
T1 sequence: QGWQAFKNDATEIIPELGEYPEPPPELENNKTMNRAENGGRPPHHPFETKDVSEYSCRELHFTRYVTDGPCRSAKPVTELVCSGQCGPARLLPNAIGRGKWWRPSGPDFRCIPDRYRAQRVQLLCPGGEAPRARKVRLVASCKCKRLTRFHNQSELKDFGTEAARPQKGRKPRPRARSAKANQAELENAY
Kind of assay: SPR (Biacore), dissociation at pH 5.8 of complex formed at pH 7.4. For orientation: Surface plasmon resonance follows binding to a sensor surface in real time, without labels.
Experimental: (§1) The affinity of anti-sclerostin variants binding to human, cynomolgus monkey (cyno), rat, or mouse sclerostin at pH 7.4 and pH 5.8 were determined at 37 degrees C. using Biacore T200 instrument (GE Healthcare). Anti-human Fc (GE Healthcare) was immobilized onto all flow cells of a CM4 sensor chip using amine coupling kit (GE Healthcare). All antibodies and analytes were prepared in ACES pH7.4 or pH 5.8 buffer containing 20 mM ACES, 150 mM NaCl, 1.2 mM CaCl₂, 0.05% Tween 20, 0.005% NaN₃. Each antibody was captured onto the sensor surface by anti-human Fc. […] Sensor surface was regenerated each cycle with 3M MgCl₂.
(§2) The pH dependent interaction assessment was determined by a modified Biacore assay. Briefly, an additional dissociation phase at pH5.8 was integrated into the Biacore assay immediately after dissociation phase at pH7.4. This is to assess the pH-dependent dissociation between antibody and antigen from the complexes formed at pH7.4. The dissociation rate at pH5.8 buffer was determined by processing and fitting data using Scrubber 2.0 (BioLogic Software) curve fitting software.

Assay [2] addresses T2, Recombinant mouse sclerostin (mouse, UniProt Q99P68 24-211).
T2 construct: Whole entry as named; also called mouse-SOST
T2 sequence: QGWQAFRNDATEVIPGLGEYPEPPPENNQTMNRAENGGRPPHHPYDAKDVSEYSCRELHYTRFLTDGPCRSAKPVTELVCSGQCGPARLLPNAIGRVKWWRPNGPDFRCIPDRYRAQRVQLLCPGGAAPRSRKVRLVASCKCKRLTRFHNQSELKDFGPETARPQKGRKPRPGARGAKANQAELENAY
Kind of assay: SPR (Biacore T200), 37 C, dissociation at pH 5.8 of complex formed at pH 7.4.
Experimental: as §1, §2

In assay [3] the target is T3, Recombinant cynomolgus monkey sclerostin (cynomolgus monkey, UniProt Q9BG78 24-213 (Chlorocebus aethiops entry)).
T3 construct: Whole entry as named; expressed and purified as the human counterpart; also called cyno-SOST; cyno SOST
T3 chain: T1 sequence with P70Q, E129A, T161P, S178G
The description is as above.
Experimental: as §1, §2

Assay [4] concerns the target T1, Recombinant human sclerostin. Described as above.
Experimental: as §1, §2
Assay [5] deals with T4, Recombinant rat sclerostin (rat, UniProt Q99P67 29-213).
T4 construct: Whole entry as named; also called rat-SOST
T4 sequence: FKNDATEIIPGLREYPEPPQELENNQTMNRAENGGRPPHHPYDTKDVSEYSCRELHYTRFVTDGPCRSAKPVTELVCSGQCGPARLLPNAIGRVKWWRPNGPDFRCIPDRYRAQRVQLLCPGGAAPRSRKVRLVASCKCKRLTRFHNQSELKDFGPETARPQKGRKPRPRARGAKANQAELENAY
The description is as above.
Experimental: as §1, §2

Assay [6] deals with T1, Recombinant human sclerostin. The assay is described as follows: cell-based or functional assay.
The target is the same in assay [7]. The assay is described as follows: SPR; captured antibody (SG1/SK1 constant regions), recombinant human SOST as analyte; response normalised by the capture level of the antibody [panel B-A-B].
In assay [8] the target is T3, Recombinant cynomolgus monkey sclerostin. Kind of assay: cell-based or functional assay.
Assay [9] deals with T1, Recombinant human sclerostin. Kind of assay: SPR; captured antibody, recombinant human SOST as analyte; response normalised by the capture level of the antibody [panel abL081].
For assay [10] the target is unchanged. The assay is described as follows: SPR; captured antibody (SG1/SK1 constant regions), recombinant human SOST as analyte; response normalised by the capture level of the antibody [panel A-A-B].
Assay [11] shares this target. The assay is described as follows: SPR; captured antibody (SG1/SK1 constant regions), recombinant human SOST as analyte; response normalised by the capture level of the antibody [panel B-B-A].
Assay [12] shares this target. The assay is described as follows: SPR; captured antibody (SG1/SK1 constant regions), recombinant human SOST as analyte; response normalised by the capture level of the antibody [panel A-B-B].
Assay [13] has the same target. Kind of assay: SPR; captured antibody, recombinant human SOST as analyte; response normalised by the capture level of the antibody [panel abL083].
Assay [14] has the same target. The assay is described as follows: SPR; captured antibody, recombinant human SOST as analyte; response normalised by the capture level of the antibody [panel abL063].

Where a chain is given by its changes, count along the chain named.

B1: amH848/bsH638/abL152 (bispecific antibody)
heavy 1: not shown
heavy 2: not shown
VL: DIQMTQSPSSLSASVGDRVTITCRASEGIHDALAWYQQKPGKAPKLLIYWASTLESGVPSRFSGSGSGTDFTLTISSLQPEDFATYYCQQGDTLPYTFGGGTKVEIK
notes: Biparatopic, common light chain
The koff is the rate constant with which the complex falls apart. In the case of B1, the koff in assay [1] was 0.1 s⁻¹.

B2: mabA_NpH1 (antibody, V domains shown)
VH: EVQLVQSGAEVKKPGASVKVSCKASGYTFTDYNMHWVRQAPGQGLEWMGEINPNSGGAGYNQKFKGRVTMTTDTSTSTAYMELRSLRSDDTAVYYCARLGYDDIYDDWYFHVWGQGTTVTVSS
VL: B1 VL with E27Q, G28D, H30S, D31N, A32Y, A34N, W50H, A51T, T53R, E55L
Turning to B2, the koff in assay [2] was found to be 0.00191 s⁻¹; in assay [3] it was 0.00182 s⁻¹; in assay [4], 0.00214 s⁻¹; in [5], 0.000805 s⁻¹.

B3: amH852/bsH656/abL152 (bispecific antibody)
heavy 1: not shown
heavy 2: not shown
VL: B1 VL
In the case of B3, the “IC50 (read off the curve); Wnt1-induced TCF/LEF luciferase reporter in HEK293T cells, % Inhibition of human SOST” value in [6] is around 10 µg/mL.

B4: amH852/bsH638/abL152 (bispecific antibody)
heavy 1: not shown
heavy 2: not shown
VL: B1 VL
notes: as for B1
Consider B4, for which the koff in [1] was found to be 0.028 s⁻¹. In addition, in assay [6], the “IC50 (read off the curve); Wnt1-induced TCF/LEF luciferase reporter in HEK293T cells, % Inhibition of human SOST” value was around 10 µg/mL.

B5: mabA_pH2 (antibody, V domains shown)
VH: B2 VH with G57H, G100H, D103H, H111D
VL: B1 VL with E27H, G28D, H30S, D31N, A32Y, A34N, W50Y, A51T, T53R, E55L
Take B5: the koff in assay [2] is 0.00805 s⁻¹; in assay [5], 0.00486 s⁻¹.

B6: mabB heavy chain combined with light chain variant B-A-B (antibody, human IgG1, kappa, V domains shown)
VH: QVQLVQSGAEVKKPGASVKVSCKVSGFPIKDTFQHWVRQAPGKGLEWMGWSDPEIGDTEYASKFQGRVTMTEDTSTDTAYMELSSLRSEDTAVYYCATGDTTYKFDFWGQGTTVTVSS
VL: DIQMTQSPSSLSASVGDRVTITCKASQDVHTAVAWYQQKPGKAPKLLIYYTSRLLSGVPSRFSGSGSGTDFTLTISSLQPEDFATYYCQQYSDYPWTFGGGTKVEIKR
notes: also called B-A-B with the mabB heavy chain
As for B6, in assay [7], the binding result was “binds”.

B7: mabA-hG2 (antibody, human IgG2, kappa, V domains shown)
VH: B2 VH with H111D
VL: DIQMTQSPSSLSASVGDRVTITCRASQDISNYLNWYQQKPGKAPKLLIYYTSRLLSGVPSRFSGSGSGTDFTLTISSLQPEDFATYYCQQGDTLPYTFGGGTKVEIKR
Turning to B7, the “IC50 (read off the curve); Wnt1-induced TCF/LEF luciferase reporter in HEK293T cells, % Inhibition of monkey SOST” value in [8] is around 4 µg/mL.

B8: mabB heavy chain combined with light chain variant abL081 (antibody, human IgG1, kappa, V domains shown)
VH: B6 VH
VL: B7 VL with S30H, N31T, N34A, Y50W, T51A, R53T, L54R, L55W
notes: also called abL081 with the mabB heavy chain
With B8, in [9], the binding result was “binds”.

B9: mabB heavy chain combined with light chain variant A-A-B (antibody, human IgG1, kappa, V domains shown)
VH: B6 VH
VL: B7 VL with G91Y, D92S, T93D, L94Y, Y96W
notes: also called A-A-B with the mabB heavy chain
Take B9: the binding result in assay [10] is “binds”.

B10: mabA heavy chain combined with light chain variant A-A-B (antibody, human IgG1, kappa, V domains shown)
VH: B2 VH with H111D
VL: B7 VL with G91Y, D92S, T93D, L94Y, Y96W
notes: also called A-A-B with the mabA heavy chain
On to B10, for which the binding result in assay [10] is reported as “no binding”.

B11: mabB heavy chain combined with light chain variant B-B-A (antibody, human IgG1, kappa, V domains shown)
VH: B6 VH
VL: DIQMTQSPSSLSASVGDRVTITCKASQDVHTAVAWYQQKPGKAPKLLIYWASTRWTGVPSRFSGSGSGTDFTLTISSLQPEDFATYYCQQGDTLPYTFGGGTKVEIKR
notes: also called B-B-A with the mabB heavy chain
B11: the binding result in [11] is on record as “binds”.

B12: mabB heavy chain combined with light chain variant A-B-B (antibody, human IgG1, kappa, V domains shown)
VH: B6 VH
VL: DIQMTQSPSSLSASVGDRVTITCRASQDISNYLNWYQQKPGKAPKLLIYWASTRWTGVPSRFSGSGSGTDFTLTISSLQPEDFATYYCQQYSDYPWTFGGGTKVEIKR
notes: also called A-B-B with the mabB heavy chain
With B12, in assay [12], the binding result is recorded as “binds”.

B13: mabB heavy chain combined with light chain variant abL083 (antibody, human IgG1, kappa, V domains shown)
VH: B6 VH
VL: B11 VL with K24R, V29I, A32Y, V33L, W55L, T56S
notes: also called abL083 with the mabB heavy chain
Turning to B13, the binding result in assay [13] is on record as “binds”.

B14: mabB heavy chain combined with light chain variant abL063 (antibody, human IgG1, kappa, V domains shown)
VH: B6 VH
VL: B11 VL with K24R, V29I, H30S, V33L, R54L, T56S
notes: also called abL063 with the mabB heavy chain
With B14, in assay [14], the binding result was “binds”.
